Results taken from patent US20250262210A1 (TRUSTEES OF COLUMBIA UNIVERSITY IN THE CITY OF NEW YORK, published 2025).

Experiments:
Assay in all cases: IP/MS, LZTR1 wild type-FLAG, U87
MAP4K4 = MAP4K4 (human, UniProt O95819 2-1239, limits assumed)
Method in brief: (§1)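 Extracted peptides in 3% acetonitrile/0.1% formic acid ran on a 50 cm C18 column into an Orbitrap Fusion, with MaxQuant identification and spectral counting.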

POLR1A = POLR1A (human, UniProt O95602 1-1720)
Method in brief: as §1

NCAPD3 = molecular target: T1, NCAPD3 (human, UniProt P42695 1-1498)
T1 sequence (looked up): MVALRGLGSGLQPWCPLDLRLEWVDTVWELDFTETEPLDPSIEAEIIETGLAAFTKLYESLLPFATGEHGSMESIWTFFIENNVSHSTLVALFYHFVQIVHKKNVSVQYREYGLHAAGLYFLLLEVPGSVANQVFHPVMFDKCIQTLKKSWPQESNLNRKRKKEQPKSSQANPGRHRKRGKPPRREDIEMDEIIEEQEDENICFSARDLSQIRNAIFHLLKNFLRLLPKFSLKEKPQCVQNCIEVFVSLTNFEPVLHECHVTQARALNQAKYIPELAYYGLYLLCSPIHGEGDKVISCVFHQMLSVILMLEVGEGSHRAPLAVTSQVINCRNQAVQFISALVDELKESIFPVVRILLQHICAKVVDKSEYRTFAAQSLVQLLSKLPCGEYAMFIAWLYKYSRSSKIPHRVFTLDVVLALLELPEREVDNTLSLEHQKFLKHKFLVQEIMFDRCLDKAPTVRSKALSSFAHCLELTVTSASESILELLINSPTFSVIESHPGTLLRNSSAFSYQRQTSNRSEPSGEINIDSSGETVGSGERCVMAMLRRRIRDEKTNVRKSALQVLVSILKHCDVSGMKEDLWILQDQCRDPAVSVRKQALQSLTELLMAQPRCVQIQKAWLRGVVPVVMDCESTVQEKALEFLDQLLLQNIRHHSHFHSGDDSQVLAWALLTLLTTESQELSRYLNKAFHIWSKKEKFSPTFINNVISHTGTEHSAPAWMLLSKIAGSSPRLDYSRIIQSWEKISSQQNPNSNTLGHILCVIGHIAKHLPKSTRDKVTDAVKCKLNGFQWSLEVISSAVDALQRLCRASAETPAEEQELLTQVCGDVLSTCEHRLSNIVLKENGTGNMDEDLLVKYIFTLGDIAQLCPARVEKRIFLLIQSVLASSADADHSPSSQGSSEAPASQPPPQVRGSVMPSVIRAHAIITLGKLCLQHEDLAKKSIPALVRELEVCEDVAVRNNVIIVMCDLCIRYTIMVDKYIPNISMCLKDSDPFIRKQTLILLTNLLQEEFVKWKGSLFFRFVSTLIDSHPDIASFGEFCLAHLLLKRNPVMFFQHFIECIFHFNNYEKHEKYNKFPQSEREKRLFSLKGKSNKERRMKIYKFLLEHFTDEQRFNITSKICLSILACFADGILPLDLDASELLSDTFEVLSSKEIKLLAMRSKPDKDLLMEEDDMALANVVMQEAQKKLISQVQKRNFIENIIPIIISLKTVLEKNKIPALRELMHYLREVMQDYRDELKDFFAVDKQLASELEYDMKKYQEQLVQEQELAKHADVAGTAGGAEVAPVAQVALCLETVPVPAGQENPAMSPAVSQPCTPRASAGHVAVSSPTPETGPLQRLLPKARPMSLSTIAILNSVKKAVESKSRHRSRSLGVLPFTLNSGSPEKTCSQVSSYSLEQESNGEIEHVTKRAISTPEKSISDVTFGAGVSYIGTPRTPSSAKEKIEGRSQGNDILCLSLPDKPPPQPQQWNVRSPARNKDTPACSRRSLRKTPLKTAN
Method in brief: as §1

MYO10 = MYO10 (human, UniProt Q9HD67 1-2058, limits assumed)
Method in brief: as §1

KIAA1217 = KIAA1217 (human, UniProt Q5T5P2 1-1943, limits assumed)
Method in brief: as §1

POLR1A, sequence (O95602 whole entry): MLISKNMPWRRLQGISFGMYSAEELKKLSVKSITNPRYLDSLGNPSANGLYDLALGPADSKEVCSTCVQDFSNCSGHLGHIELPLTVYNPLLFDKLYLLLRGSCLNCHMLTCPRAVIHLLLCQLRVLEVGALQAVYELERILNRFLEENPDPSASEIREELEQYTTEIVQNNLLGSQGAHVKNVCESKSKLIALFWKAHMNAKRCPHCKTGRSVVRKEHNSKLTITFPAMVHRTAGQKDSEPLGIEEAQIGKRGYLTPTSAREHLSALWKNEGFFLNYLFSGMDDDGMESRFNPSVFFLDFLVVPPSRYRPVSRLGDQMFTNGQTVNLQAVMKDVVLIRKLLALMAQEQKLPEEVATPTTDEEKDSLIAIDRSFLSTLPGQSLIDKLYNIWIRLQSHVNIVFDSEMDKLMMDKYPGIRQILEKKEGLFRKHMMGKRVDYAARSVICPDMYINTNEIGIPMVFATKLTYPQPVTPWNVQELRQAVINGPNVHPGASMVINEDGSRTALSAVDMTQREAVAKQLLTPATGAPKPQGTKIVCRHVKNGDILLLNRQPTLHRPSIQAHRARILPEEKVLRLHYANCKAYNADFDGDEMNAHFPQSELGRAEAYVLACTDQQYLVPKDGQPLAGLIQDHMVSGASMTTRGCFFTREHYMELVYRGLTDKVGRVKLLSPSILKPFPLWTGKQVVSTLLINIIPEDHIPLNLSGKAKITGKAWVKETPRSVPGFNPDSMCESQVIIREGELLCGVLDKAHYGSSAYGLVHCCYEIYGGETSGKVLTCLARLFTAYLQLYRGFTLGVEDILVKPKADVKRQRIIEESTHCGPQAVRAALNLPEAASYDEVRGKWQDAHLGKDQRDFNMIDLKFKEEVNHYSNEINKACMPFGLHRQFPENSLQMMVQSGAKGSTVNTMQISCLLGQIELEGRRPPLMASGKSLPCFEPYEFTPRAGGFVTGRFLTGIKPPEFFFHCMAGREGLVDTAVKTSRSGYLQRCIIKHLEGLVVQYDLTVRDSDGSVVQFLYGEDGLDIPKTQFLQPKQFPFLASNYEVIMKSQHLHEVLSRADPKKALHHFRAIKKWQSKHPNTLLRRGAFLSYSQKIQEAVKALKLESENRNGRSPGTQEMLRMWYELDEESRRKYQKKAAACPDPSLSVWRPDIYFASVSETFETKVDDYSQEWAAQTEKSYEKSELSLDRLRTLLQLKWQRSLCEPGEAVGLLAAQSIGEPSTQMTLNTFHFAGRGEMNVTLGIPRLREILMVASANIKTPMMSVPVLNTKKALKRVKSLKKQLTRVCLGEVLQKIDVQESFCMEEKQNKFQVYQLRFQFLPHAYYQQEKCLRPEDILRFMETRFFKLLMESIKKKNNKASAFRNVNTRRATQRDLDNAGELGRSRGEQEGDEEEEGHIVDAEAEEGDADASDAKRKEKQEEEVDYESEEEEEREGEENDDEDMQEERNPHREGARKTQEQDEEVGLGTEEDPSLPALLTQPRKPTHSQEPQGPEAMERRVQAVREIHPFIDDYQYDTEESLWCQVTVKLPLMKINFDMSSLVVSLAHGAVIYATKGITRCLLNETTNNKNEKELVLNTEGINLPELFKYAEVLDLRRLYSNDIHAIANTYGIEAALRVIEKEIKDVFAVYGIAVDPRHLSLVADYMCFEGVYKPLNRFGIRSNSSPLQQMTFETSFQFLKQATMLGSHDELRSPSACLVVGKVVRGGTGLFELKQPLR
KIAA1217, sequence (Q5T5P2 whole entry): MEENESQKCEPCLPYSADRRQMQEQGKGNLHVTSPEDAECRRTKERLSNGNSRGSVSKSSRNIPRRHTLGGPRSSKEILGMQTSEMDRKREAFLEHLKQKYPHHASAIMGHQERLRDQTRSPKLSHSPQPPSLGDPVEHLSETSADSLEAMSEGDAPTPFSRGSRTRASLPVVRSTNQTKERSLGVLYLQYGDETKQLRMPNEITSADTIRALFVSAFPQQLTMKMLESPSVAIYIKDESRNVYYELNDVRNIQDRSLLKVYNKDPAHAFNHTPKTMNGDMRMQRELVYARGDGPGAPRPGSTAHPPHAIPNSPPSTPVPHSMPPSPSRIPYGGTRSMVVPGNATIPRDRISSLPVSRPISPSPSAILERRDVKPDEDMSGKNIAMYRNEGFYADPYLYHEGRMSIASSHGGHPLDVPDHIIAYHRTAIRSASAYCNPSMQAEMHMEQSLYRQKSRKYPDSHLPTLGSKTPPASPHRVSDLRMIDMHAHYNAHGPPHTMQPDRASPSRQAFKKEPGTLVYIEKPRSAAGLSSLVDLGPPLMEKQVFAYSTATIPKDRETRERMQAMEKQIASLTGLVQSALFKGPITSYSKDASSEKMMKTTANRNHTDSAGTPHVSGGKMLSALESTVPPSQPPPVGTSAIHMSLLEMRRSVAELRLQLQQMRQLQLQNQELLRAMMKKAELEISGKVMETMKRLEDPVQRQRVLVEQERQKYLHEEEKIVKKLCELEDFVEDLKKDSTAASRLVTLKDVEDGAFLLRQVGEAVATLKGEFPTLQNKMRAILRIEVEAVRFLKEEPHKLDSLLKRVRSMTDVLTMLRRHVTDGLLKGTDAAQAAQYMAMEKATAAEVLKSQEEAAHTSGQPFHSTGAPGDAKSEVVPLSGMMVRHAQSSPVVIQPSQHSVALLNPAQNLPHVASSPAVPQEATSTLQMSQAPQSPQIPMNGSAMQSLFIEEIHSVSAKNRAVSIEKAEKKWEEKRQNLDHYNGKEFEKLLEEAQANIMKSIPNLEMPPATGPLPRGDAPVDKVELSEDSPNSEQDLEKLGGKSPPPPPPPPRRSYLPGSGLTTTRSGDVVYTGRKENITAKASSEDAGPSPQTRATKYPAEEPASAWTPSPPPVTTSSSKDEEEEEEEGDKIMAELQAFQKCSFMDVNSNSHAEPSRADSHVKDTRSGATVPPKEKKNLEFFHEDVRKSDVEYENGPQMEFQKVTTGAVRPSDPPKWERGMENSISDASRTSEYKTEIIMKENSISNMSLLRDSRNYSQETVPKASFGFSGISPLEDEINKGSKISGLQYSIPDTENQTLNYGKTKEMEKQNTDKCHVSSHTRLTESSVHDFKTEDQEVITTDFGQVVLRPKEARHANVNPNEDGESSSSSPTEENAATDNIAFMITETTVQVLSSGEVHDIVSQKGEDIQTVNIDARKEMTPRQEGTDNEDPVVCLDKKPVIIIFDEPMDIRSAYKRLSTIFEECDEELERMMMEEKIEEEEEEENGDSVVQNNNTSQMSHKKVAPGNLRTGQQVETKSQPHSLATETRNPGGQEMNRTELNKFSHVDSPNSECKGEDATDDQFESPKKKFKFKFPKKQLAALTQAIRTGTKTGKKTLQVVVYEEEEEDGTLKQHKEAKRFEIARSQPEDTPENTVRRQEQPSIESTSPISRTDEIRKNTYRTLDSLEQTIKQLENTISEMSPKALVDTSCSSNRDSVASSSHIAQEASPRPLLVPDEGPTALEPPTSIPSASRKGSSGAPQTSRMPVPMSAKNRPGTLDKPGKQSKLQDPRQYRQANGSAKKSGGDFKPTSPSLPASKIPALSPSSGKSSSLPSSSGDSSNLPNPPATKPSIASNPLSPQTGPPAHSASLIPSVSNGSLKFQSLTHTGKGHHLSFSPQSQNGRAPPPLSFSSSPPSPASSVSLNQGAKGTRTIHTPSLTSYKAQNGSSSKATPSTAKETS
MAP4K4, sequence (O95819 2-1239 limits assumed): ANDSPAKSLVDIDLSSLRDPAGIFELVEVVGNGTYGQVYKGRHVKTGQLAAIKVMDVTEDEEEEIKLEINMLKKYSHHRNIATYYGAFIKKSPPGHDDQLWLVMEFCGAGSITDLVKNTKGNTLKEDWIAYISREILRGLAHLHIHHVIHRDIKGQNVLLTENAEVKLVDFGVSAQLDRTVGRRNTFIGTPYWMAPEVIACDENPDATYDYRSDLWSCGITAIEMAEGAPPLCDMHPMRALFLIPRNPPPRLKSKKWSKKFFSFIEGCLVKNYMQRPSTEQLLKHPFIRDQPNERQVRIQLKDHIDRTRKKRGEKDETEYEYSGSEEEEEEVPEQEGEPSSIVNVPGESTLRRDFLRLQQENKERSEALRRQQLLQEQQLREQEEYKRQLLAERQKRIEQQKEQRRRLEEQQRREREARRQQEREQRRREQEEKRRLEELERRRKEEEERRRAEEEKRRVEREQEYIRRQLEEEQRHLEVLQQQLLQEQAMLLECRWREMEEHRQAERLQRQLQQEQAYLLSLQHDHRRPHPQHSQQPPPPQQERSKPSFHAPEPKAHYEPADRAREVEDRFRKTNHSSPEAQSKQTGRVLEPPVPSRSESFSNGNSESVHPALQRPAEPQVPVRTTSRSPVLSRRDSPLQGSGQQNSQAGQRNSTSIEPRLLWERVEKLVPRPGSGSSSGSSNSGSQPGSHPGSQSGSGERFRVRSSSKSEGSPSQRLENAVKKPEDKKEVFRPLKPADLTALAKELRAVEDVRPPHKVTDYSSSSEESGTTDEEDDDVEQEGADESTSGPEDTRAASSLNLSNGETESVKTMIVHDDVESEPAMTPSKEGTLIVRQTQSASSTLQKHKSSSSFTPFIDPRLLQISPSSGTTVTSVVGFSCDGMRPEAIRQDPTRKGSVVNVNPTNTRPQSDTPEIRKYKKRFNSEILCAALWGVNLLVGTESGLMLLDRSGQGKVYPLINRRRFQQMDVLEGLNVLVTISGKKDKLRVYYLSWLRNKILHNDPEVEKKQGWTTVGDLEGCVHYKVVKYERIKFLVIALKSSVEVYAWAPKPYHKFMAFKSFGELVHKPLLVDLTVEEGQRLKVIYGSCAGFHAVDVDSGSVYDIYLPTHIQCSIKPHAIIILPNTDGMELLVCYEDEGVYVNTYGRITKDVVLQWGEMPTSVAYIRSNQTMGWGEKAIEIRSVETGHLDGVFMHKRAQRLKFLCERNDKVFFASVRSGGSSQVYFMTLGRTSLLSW

binding result (MAP4K4): binds
binding result (POLR1A): binds
binding result (NCAPD3): binds
binding result (MYO10): binds
binding result (KIAA1217): binds
B1: LZTR1-FLAG (other, human, UniProt Q8N653 1-840, looked up)
chain: MAGPGSTGGQIGAAALAGGARSKVAPSVDFDHSCSDSVEYLTLNFGPFETVHRWRRLPPCDEFVGARRSKHTVVAYKDAIYVFGGDNGKTMLNDLLRFDVKDCSWCRAFTTGTPPAPRYHHSAVVYGSSMFVFGGYTGDIYSNSNLKNKNDLFEYKFATGQWTEWKIEGRLPVARSAHGATVYSDKLWIFAGYDGNARLNDMWTIGLQDRELTCWEEVAQSGEIPPSCCNFPVAVCRDKMFVFSGQSGAKITNNLFQFEFKDKTWTRIPTEHLLRGSPPPPQRRYGHTMVAFDRHLYVFGGAADNTLPNELHCYDVDFQTWEVVQPSSDSEVGGAEVPERACASEEVPTLTYEERVGFKKSRDVFGLDFGTTSAKQPTQPASELPSGRLFHAAAVISDAMYIFGGTVDNNIRSGEMYRFQFSCYPKCTLHEDYGRLWESRQFCDVEFVLGEKEECVQGHVAIVTARSRWLRRKITQARERLAQKLEQEAAPVPREAPGVAAGGARPPLLHVAIREAEARPFEVLMQFLYTDKIKYPRKGHVEDVLLIMDVYKLALSFQLCRLEQLCRQYIEASVDLQNVLVVCESAARLQLSQLKEHCLNFVVKESHFNQVIMMKEFERLSSPLIVEIVRRKQQPPPRTPLDQPVDIGTSLIQDMKAYLEGAGAEFCDITLLLDGHPRPAHKAILAARSSYFEAMFRSFMPEDGQVNISIGEMVPSRQAFESMLRYIYYGEVNMPPEDSLYLFAAPYYYGFYNNRLQAYCKQNLEMNVTVQNVLQILEAADKTQALDMKRHCLHIIVHQFTKVSKLPTLRSLSQQLLLDIIDSLASHISDKQCAELGADI
notes: Expressed in HEK 293T, HeLa or U87 cells; used as cell lysate; also called LZTR1 wild type-FLAG; LZTR1 WT; not shown: FLAG tag at the C-terminus
